From US20140087995A1 (published 2014)
Numbered stars: 1 amine (or outer) side, 2 acyl side, 3 side chain; on linkers, the order of the positions; unused ones are H or OH. Bridge positions count the residues as written; N and C are the ends. Side chains are listed from the residue outwards. Ends that are not written are not given here. * marks the point of attachment. C20 diacid = O=C(O)CCCCCCCCCCCCCCCCCCC(=O)*; γGlu = O=C(O)[C@H](CCC(=O)[*:2])N[*:1]

Key:
[1] = target: T1, human amylin receptor (amylin 3(a) receptor: human calcitonin receptor co-expressed with RAMP-3) (human, UniProt P30988 25-474; O60896 24-148, limits assumed); assay: cell-based or functional assay
T1 sequence (looked up) 1: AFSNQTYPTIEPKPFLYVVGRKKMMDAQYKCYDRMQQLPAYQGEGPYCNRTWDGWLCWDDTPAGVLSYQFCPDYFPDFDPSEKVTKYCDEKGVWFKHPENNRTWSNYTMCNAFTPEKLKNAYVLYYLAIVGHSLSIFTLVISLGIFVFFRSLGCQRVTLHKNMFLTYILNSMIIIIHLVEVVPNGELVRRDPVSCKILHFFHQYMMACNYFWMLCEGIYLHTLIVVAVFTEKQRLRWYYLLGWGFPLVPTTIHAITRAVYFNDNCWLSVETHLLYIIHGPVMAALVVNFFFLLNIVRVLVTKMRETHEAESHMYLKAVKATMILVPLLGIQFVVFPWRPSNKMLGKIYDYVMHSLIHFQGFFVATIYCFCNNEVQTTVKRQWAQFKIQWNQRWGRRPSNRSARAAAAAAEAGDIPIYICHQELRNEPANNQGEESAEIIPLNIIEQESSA
T1 sequence (looked up) 2: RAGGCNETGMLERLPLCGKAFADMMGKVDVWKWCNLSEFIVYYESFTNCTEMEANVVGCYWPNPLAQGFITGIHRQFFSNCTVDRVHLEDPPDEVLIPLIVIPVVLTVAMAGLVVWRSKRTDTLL

[2] = target: T2, human calcitonin receptor (human, UniProt P30988 25-474); assay: cell-based or functional assay
T2 sequence (looked up): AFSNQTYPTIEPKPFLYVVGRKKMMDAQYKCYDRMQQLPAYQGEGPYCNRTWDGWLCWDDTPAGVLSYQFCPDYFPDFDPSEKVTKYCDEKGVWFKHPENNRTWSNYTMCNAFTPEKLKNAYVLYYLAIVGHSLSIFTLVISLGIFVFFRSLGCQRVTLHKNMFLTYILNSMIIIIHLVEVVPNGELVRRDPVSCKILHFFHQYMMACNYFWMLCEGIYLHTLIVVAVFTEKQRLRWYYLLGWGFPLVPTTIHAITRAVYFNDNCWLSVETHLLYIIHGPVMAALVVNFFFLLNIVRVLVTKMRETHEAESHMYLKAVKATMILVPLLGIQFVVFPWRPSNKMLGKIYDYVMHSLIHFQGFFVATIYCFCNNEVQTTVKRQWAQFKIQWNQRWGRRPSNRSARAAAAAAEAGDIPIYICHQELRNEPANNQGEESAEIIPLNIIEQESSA

Binder | hAmylin-R funct. EC50 [1] | Ratio hCT/hAmylin funct. (hCTR EC50 against hAmylin-R EC50) [2] | hCTR funct. EC50 [2]
K([γGlu-C20 diacid])CNTATCATQRLARFLRHSSPNFGAIPSSTNVGPNTY-NH2 (disulfide 2-7; N-terminus assumed; SMILES CC[C@H](C)[C@H](NC(=O)[C@H](C)NC(=O)CNC(=O)[C@H](Cc1ccccc1)NC(=O)[C@H](CC(N)=O)NC(=O)[C@@H]1CCCN1C(=O)[C@H](CO)NC(=O)[C@H](CO)NC(=O)[C@H](Cc1c[nH]cn1)NC(=O)[C@H](CCCNC(=N)N)NC(=O)[C@H](CC(C)C)NC(=O)[C@H](Cc1ccccc1)NC(=O)[C@H](CCCNC(=N)N)NC(=O)[C@H](C)NC(=O)[C@H](CC(C)C)NC(=O)[C@H](CCCNC(=N)N)NC(=O)[C@H](CCC(N)=O)NC(=O)[C@@H](NC(=O)[C@H](C)NC(=O)[C@@H]1CSSC[C@H](NC(=O)[C@@H](N)CCCCNC(=O)CC[C@H](NC(=O)CCCCCCCCCCCCCCCCCCC(=O)O)C(=O)O)C(=O)N[C@@H](CC(N)=O)C(=O)N[C@@H]([C@@H](C)O)C(=O)N[C@@H](C)C(=O)N[C@@H]([C@@H](C)O)C(=O)N1)[C@@H](C)O)C(=O)N1CCC[C@H]1C(=O)N[C@@H](CO)C(=O)N[C@@H](CO)C(=O)N[C@H](C(=O)N[C@@H](CC(N)=O)C(=O)N[C@H](C(=O)NCC(=O)N1CCC[C@H]1C(=O)N[C@@H](CC(N)=O)C(=O)N[C@H](C(=O)N[C@@H](Cc1ccc(O)cc1)C(N)=O)[C@@H](C)O)C(C)C)[C@@H](C)O, also called compound 65) | 0.242 nM | 38.6 | 9.33 nM
K([γGlu-C20 diacid])CNTATCATQRLAEFLRHSSPNFGAIPSSTNVGSRTY-NH2 (disulfide 2-7; N-terminus assumed; SMILES CC[C@H](C)[C@H](NC(=O)[C@H](C)NC(=O)CNC(=O)[C@H](Cc1ccccc1)NC(=O)[C@H](CC(N)=O)NC(=O)[C@@H]1CCCN1C(=O)[C@H](CO)NC(=O)[C@H](CO)NC(=O)[C@H](Cc1c[nH]cn1)NC(=O)[C@H](CCCNC(=N)N)NC(=O)[C@H](CC(C)C)NC(=O)[C@H](Cc1ccccc1)NC(=O)[C@H](CCC(=O)O)NC(=O)[C@H](C)NC(=O)[C@H](CC(C)C)NC(=O)[C@H](CCCNC(=N)N)NC(=O)[C@H](CCC(N)=O)NC(=O)[C@@H](NC(=O)[C@H](C)NC(=O)[C@@H]1CSSC[C@H](NC(=O)[C@@H](N)CCCCNC(=O)CC[C@H](NC(=O)CCCCCCCCCCCCCCCCCCC(=O)O)C(=O)O)C(=O)N[C@@H](CC(N)=O)C(=O)N[C@@H]([C@@H](C)O)C(=O)N[C@@H](C)C(=O)N[C@@H]([C@@H](C)O)C(=O)N1)[C@@H](C)O)C(=O)N1CCC[C@H]1C(=O)N[C@@H](CO)C(=O)N[C@@H](CO)C(=O)N[C@H](C(=O)N[C@@H](CC(N)=O)C(=O)N[C@H](C(=O)NCC(=O)N[C@@H](CO)C(=O)N[C@@H](CCCNC(=N)N)C(=O)N[C@H](C(=O)N[C@@H](Cc1ccc(O)cc1)C(N)=O)[C@@H](C)O)C(C)C)[C@@H](C)O, also called compound 51) | 0.372 nM | 14 | 5.22 nM
K([γGlu-C20 diacid])CNTATCATQRLAHFLRHSSPNFGAIPSSTNVGSHTY-NH2 (disulfide 2-7; N-terminus assumed; SMILES CC[C@H](C)[C@H](NC(=O)[C@H](C)NC(=O)CNC(=O)[C@H](Cc1ccccc1)NC(=O)[C@H](CC(N)=O)NC(=O)[C@@H]1CCCN1C(=O)[C@H](CO)NC(=O)[C@H](CO)NC(=O)[C@H](Cc1c[nH]cn1)NC(=O)[C@H](CCCNC(=N)N)NC(=O)[C@H](CC(C)C)NC(=O)[C@H](Cc1ccccc1)NC(=O)[C@H](Cc1c[nH]cn1)NC(=O)[C@H](C)NC(=O)[C@H](CC(C)C)NC(=O)[C@H](CCCNC(=N)N)NC(=O)[C@H](CCC(N)=O)NC(=O)[C@@H](NC(=O)[C@H](C)NC(=O)[C@@H]1CSSC[C@H](NC(=O)[C@@H](N)CCCCNC(=O)CC[C@H](NC(=O)CCCCCCCCCCCCCCCCCCC(=O)O)C(=O)O)C(=O)N[C@@H](CC(N)=O)C(=O)N[C@@H]([C@@H](C)O)C(=O)N[C@@H](C)C(=O)N[C@@H]([C@@H](C)O)C(=O)N1)[C@@H](C)O)C(=O)N1CCC[C@H]1C(=O)N[C@@H](CO)C(=O)N[C@@H](CO)C(=O)N[C@H](C(=O)N[C@@H](CC(N)=O)C(=O)N[C@H](C(=O)NCC(=O)N[C@@H](CO)C(=O)N[C@@H](Cc1c[nH]cn1)C(=O)N[C@H](C(=O)N[C@@H](Cc1ccc(O)cc1)C(N)=O)[C@@H](C)O)C(C)C)[C@@H](C)O, also called compound 66) | 0.027 nM | 20.1 | 0.542 nM
K([γGlu-C20 diacid])CNTATCATQRLANFLRHSSPNFGAIPSSTNVGHNTY-NH2 (disulfide 2-7; N-terminus assumed; SMILES CC[C@H](C)[C@H](NC(=O)[C@H](C)NC(=O)CNC(=O)[C@H](Cc1ccccc1)NC(=O)[C@H](CC(N)=O)NC(=O)[C@@H]1CCCN1C(=O)[C@H](CO)NC(=O)[C@H](CO)NC(=O)[C@H](Cc1c[nH]cn1)NC(=O)[C@H](CCCNC(=N)N)NC(=O)[C@H](CC(C)C)NC(=O)[C@H](Cc1ccccc1)NC(=O)[C@H](CC(N)=O)NC(=O)[C@H](C)NC(=O)[C@H](CC(C)C)NC(=O)[C@H](CCCNC(=N)N)NC(=O)[C@H](CCC(N)=O)NC(=O)[C@@H](NC(=O)[C@H](C)NC(=O)[C@@H]1CSSC[C@H](NC(=O)[C@@H](N)CCCCNC(=O)CC[C@H](NC(=O)CCCCCCCCCCCCCCCCCCC(=O)O)C(=O)O)C(=O)N[C@@H](CC(N)=O)C(=O)N[C@@H]([C@@H](C)O)C(=O)N[C@@H](C)C(=O)N[C@@H]([C@@H](C)O)C(=O)N1)[C@@H](C)O)C(=O)N1CCC[C@H]1C(=O)N[C@@H](CO)C(=O)N[C@@H](CO)C(=O)N[C@H](C(=O)N[C@@H](CC(N)=O)C(=O)N[C@H](C(=O)NCC(=O)N[C@@H](Cc1c[nH]cn1)C(=O)N[C@@H](CC(N)=O)C(=O)N[C@H](C(=O)N[C@@H](Cc1ccc(O)cc1)C(N)=O)[C@@H](C)O)C(C)C)[C@@H](C)O, also called compound 77) [N^ε1-[(4S)-4-carboxy-4-(19-carboxynonadecanoylamino)butanoyl]-[Arg17,Pro21,Pro27,His34]-h-amylin] | 0.145 nM | 37.3 | 5.4 nM
K([γGlu-C20 diacid])CNTATCATQRLANFLRHSSPNFGAIPSSTNVGSHTY-NH2 (disulfide 2-7; N-terminus assumed; SMILES CC[C@H](C)[C@H](NC(=O)[C@H](C)NC(=O)CNC(=O)[C@H](Cc1ccccc1)NC(=O)[C@H](CC(N)=O)NC(=O)[C@@H]1CCCN1C(=O)[C@H](CO)NC(=O)[C@H](CO)NC(=O)[C@H](Cc1c[nH]cn1)NC(=O)[C@H](CCCNC(=N)N)NC(=O)[C@H](CC(C)C)NC(=O)[C@H](Cc1ccccc1)NC(=O)[C@H](CC(N)=O)NC(=O)[C@H](C)NC(=O)[C@H](CC(C)C)NC(=O)[C@H](CCCNC(=N)N)NC(=O)[C@H](CCC(N)=O)NC(=O)[C@@H](NC(=O)[C@H](C)NC(=O)[C@@H]1CSSC[C@H](NC(=O)[C@@H](N)CCCCNC(=O)CC[C@H](NC(=O)CCCCCCCCCCCCCCCCCCC(=O)O)C(=O)O)C(=O)N[C@@H](CC(N)=O)C(=O)N[C@@H]([C@@H](C)O)C(=O)N[C@@H](C)C(=O)N[C@@H]([C@@H](C)O)C(=O)N1)[C@@H](C)O)C(=O)N1CCC[C@H]1C(=O)N[C@@H](CO)C(=O)N[C@@H](CO)C(=O)N[C@H](C(=O)N[C@@H](CC(N)=O)C(=O)N[C@H](C(=O)NCC(=O)N[C@@H](CO)C(=O)N[C@@H](Cc1c[nH]cn1)C(=O)N[C@H](C(=O)N[C@@H](Cc1ccc(O)cc1)C(N)=O)[C@@H](C)O)C(C)C)[C@@H](C)O, also called compound 60) [N^ε1-[(4S)-4-carboxy-4-(19-carboxynonadecanoylamino)butanoyl]-[Arg17,Pro21,Pro27,His35]-h-amylin] | 0.351 nM | 15.3 | 5.36 nM
K([γGlu-C20 diacid])CNTATCATQRLAHFLRHSSPNFGAIPSSTPVGSNTY-NH2 (disulfide 2-7; N-terminus assumed; SMILES CC[C@H](C)[C@H](NC(=O)[C@H](C)NC(=O)CNC(=O)[C@H](Cc1ccccc1)NC(=O)[C@H](CC(N)=O)NC(=O)[C@@H]1CCCN1C(=O)[C@H](CO)NC(=O)[C@H](CO)NC(=O)[C@H](Cc1c[nH]cn1)NC(=O)[C@H](CCCNC(=N)N)NC(=O)[C@H](CC(C)C)NC(=O)[C@H](Cc1ccccc1)NC(=O)[C@H](Cc1c[nH]cn1)NC(=O)[C@H](C)NC(=O)[C@H](CC(C)C)NC(=O)[C@H](CCCNC(=N)N)NC(=O)[C@H](CCC(N)=O)NC(=O)[C@@H](NC(=O)[C@H](C)NC(=O)[C@@H]1CSSC[C@H](NC(=O)[C@@H](N)CCCCNC(=O)CC[C@H](NC(=O)CCCCCCCCCCCCCCCCCCC(=O)O)C(=O)O)C(=O)N[C@@H](CC(N)=O)C(=O)N[C@@H]([C@@H](C)O)C(=O)N[C@@H](C)C(=O)N[C@@H]([C@@H](C)O)C(=O)N1)[C@@H](C)O)C(=O)N1CCC[C@H]1C(=O)N[C@@H](CO)C(=O)N[C@@H](CO)C(=O)N[C@H](C(=O)N1CCC[C@H]1C(=O)N[C@H](C(=O)NCC(=O)N[C@@H](CO)C(=O)N[C@@H](CC(N)=O)C(=O)N[C@H](C(=O)N[C@@H](Cc1ccc(O)cc1)C(N)=O)[C@@H](C)O)C(C)C)[C@@H](C)O, also called compound 62) | 0.044 nM | 12.3 | 0.539 nM
